± gives the uncertainty stated by the source.
B1: Cytoplasmic polyadenylation element-binding protein 2, residues 513 to 575; numbered along this chain, Q7Z5Q1 (parent)
chain: KRVEVKPYVLDDQMCDECQGARCGGKFAPFFCANVTCLQYYCEFCWANIHSRAGREFHKPLVK
B2: POU domain, class 3, transcription factor 1, residues 247 to 324; numbered along this chain, Q03052 (parent)
chain: EDAPSSDDLEQFAKQFKQRRIKLGFTQADVGLALGTLYGNVFSQTTICRFEALQLSFKNMCKLKPLLNKWLEETDSSS

Variants of: B1
Test: abundance fitness (aPCA) (normalised: wild type 0, dead -1); higher = more abundant; growth selection in yeast, the domain comes from the species named
Details: Homo sapiens

Row | Variant | abundance fitness
1 | KRVEVKPYVLMDQMCDECQGARCGGKFAPFFCANVTCLQYYCEFCWANIHSRAGREFHKPLVK [D11M] | -0.259 ± 0.056
2 | KRVEVKPYVLDDQMCDECQGARCGSKFAPFFCANVTCLQYYCEFCWANIHSRAGREFHKPLVK [G25S] | -0.138 ± 0.045
3 | KRVEVKPYVLDDQMCDECQGARCGGKFKPFFCANVTCLQYYCEFCWANIHSRAGREFHKPLVK [A28K] | -0.094 ± 0.06
4 | KRVEVKPYVLDDQMCDECQGARCGGKFAPFFCANVTCLQYYCEFTWANIHSRAGREFHKPLVK [C45T] | -1.01 ± 0.099
5 | KRVEVKPYVLDDQMCDECQGARCGGKFAPFFCANVTCLAYYCEFCWANIHSRAGREFHKPLVK [Q39A] | 0.1 ± 0.04
6 | KRVEVKPYVLDDQMCDECQGARCGGKFAPFFCANVTCLRYYCEFCWANIHSRAGREFHKPLVK [Q39R] | 0.129 ± 0.045
7 | KRVEVKPYVLDDQMCDECQGARCGGKFAPFFCANVTCLQYYCEFCWANIHNRAGREFHKPLVK [S51N] | 0.091 ± 0.079
8 | KRVEVKPYVLDDQMCDECQGARCGGKFAPFFCANVTCLQYYCEFCWANIHSRAGREFHKPEVK [L61E] | 0.146 ± 0.051
9 | KRVEVKPYVLDDQMCDECQGARCGGKFAPFFCANVTCLQYYCEFCWANIHSRAGREFHKPWVK [L61W] | -0.137 ± 0.045
10 | KRVEVKPYVLDDQMCDECQGARCGGKFAWFFCANVTCLQYYCEFCWANIHSRAGREFHKPLVK [P29W] | -0.293 ± 0.052
11 | KRVEVKPYVLDDQMCDECQGARCGGKFAVFFCANVTCLQYYCEFCWANIHSRAGREFHKPLVK [P29V] | -0.199 ± 0.064
12 | KRVEVKRYVLDDQMCDECQGARCGGKFAPFFCANVTCLQYYCEFCWANIHSRAGREFHKPLVK [P7R] | -0.125 ± 0.033
13 | KRVEVKPYVLDDQMCDECQGARCGGKFAPFFCANVTCLQYYCEFCWALIHSRAGREFHKPLVK [N48L] | 0.014 ± 0.043
14 | KRVEVKPYVLDDAMCDECQGARCGGKFAPFFCANVTCLQYYCEFCWANIHSRAGREFHKPLVK [Q13A] | -0.017 ± 0.048
15 | KRVEVKPYVLDDQMCDECQGARCGGKFAPFFCANVTCLQYYCEFCWANIHSRAGRQFHKPLVK [E56Q] | -0.214 ± 0.08
16 | KRVEVKPYVLDDQMCDECQGARCWGKFAPFFCANVTCLQYYCEFCWANIHSRAGREFHKPLVK [G24W] | -0.278 ± 0.034
17 | KRVEVKPYVLDDQMCDECQGARCVGKFAPFFCANVTCLQYYCEFCWANIHSRAGREFHKPLVK [G24V] | -0.083 ± 0.045
18 | KRVEVKPYVLDDQMCDECQGARCGGKFAPFFCANVTCLQYYCEFCWANIHSRDGREFHKPLVK [A53D] | 0.02 ± 0.088
19 | KRVEVKPYVLDDQMCDECQGARCGGKFAPFFCANVTCLQYYCEFCWANIHSRAGREFHKPLVV [K63V] | -0.112 ± 0.062
20 | KRVEVKPYVLDDQMCDECQGARCGGKFAPFFCANVTCLQYYCEFCWANIHSRAGREFHKPLVQ [K63Q] | -0.044 ± 0.11

Row | Variant | abundance fitness
21 | KRVEVKPYVLDDQMCDECQGARCGGKFAPFHCANVTCLQYYCEFCWANIHSRAGREFHKPLVK [F31H] | -0.626 ± 0.16
22 | KRVEVKPYVIDDQMCDECQGARCGGKFAPFFCANVTCLQYYCEFCWANIHSRAGREFHKPLVK [L10I] | -0.062 ± 0.083
23 | KRVEVKPYVLDDQMCDECQGARCGGKFAPFFCANVTCLQYYCEFCWANIHSAAGREFHKPLVK [R52A] | 0 ± 0.045
24 | KRVEVKPYVLDDQMCDECQGARCGGQFAPFFCANVTCLQYYCEFCWANIHSRAGREFHKPLVK [K26Q] | -0.132 ± 0.058
25 | KRVEVKPYVLDDQMCDECQGARCGGKFAPFFWANVTCLQYYCEFCWANIHSRAGREFHKPLVK [C32W] | -0.929 ± 0.13
26 | KRVEVKPYVLDDQMCDECQGAECGGKFAPFFCANVTCLQYYCEFCWANIHSRAGREFHKPLVK [R22E] | -0.222 ± 0.061
27 | LRVEVKPYVLDDQMCDECQGARCGGKFAPFFCANVTCLQYYCEFCWANIHSRAGREFHKPLVK [K1L] | -0.417 ± 0.074
28 | KRVEVKPYVLDDQMCDECQGARCGGKFAPFFCANVTCLQYYREFCWANIHSRAGREFHKPLVK [C42R] | -1 ± 0.091
29 | KRVEVKPYVLDDQMCDECQGARCGGKFAPNFCANVTCLQYYCEFCWANIHSRAGREFHKPLVK [F30N] | -0.081 ± 0.13
30 | KRVEVKPYVLDDQMCDECQGARCGGKFAPEFCANVTCLQYYCEFCWANIHSRAGREFHKPLVK [F30E] | -0.415 ± 0.11
31 | KRVEVKPYVLDDQMCDECQGARCGGKFAPFFCANCTCLQYYCEFCWANIHSRAGREFHKPLVK [V35C] | -0.253 ± 0.076
32 | KRVEVKPYVLDDQMCDECQGARCGGKFAPFFCANYTCLQYYCEFCWANIHSRAGREFHKPLVK [V35Y] | -0.305 ± 0.14
33 | KRVEVKPYVLDDQMCDECQGARCGGKFAPFFCANVTCLQYYCEFCWANGHSRAGREFHKPLVK [I49G] | -0.284 ± 0.072
34 | KRVEVKPYVLDDQMCDECQGARCGGKFAPFFCANVTCLQYYCEFCWANLHSRAGREFHKPLVK [I49L] | -0.033 ± 0.04
35 | KRVEVKPYVLDDQMIDECQGARCGGKFAPFFCANVTCLQYYCEFCWANIHSRAGREFHKPLVK [C15I] | -0.626 ± 0.14
36 | KRVSVKPYVLDDQMCDECQGARCGGKFAPFFCANVTCLQYYCEFCWANIHSRAGREFHKPLVK [E4S] | -0.185 ± 0.048
37 | KRVEVNPYVLDDQMCDECQGARCGGKFAPFFCANVTCLQYYCEFCWANIHSRAGREFHKPLVK [K6N] | 0.006 ± 0.063
38 | KRVEVKPYVLDDQMCDECQGARCGGKFAPFFCANVTCLQYYCEVCWANIHSRAGREFHKPLVK [F44V] | 0.044 ± 0.046
39 | KRVEVKPYVLDDQMCDECQGARCGGKFAPFFCANVTCLQYYCERCWANIHSRAGREFHKPLVK [F44R] | -0.038 ± 0.032

Variants of: B2
Test: as above
Details: Homo sapiens

Row | Variant | abundance fitness
40 | EDAPSSDDLEQFAKQFKQRRIKLGFTQADVGLALGTLYGNVFSQTTICRFEALQLSFKNMCKLKPLLNKWLEETDSSW [S78W] | -0.189 ± 0.14
41 | EDAPSSDDLEQFAKQFKQRRIKLGFTQADVGLALGTLYGNVFSQTTICRFEALQLSFKNMCKLKPLLNKWLEETDSSY [S78Y] | -0.008 ± 0.19
42 | EDAPSSDDLEQFAKQFKQRRIKLGFTQADVGLALGTLYGNVFSQTTICRFEALQLSFKNMCKLKPLLNKWLEETDSSV [S78V] | 0.021 ± 0.079
